In patent US20150210767A1 (GlaxoSmithKline, published 2015):

Assays:
[1] = molecular target: T1, biotinylated recombinant human soluble TNFR1 (human, UniProt P19438 30-211, biotinylated (EZ-Link Sulfo-NHS-LC-Biotin), sites not stated); assay: BIAcore (SPR), biotinylated human TNFR1 on streptavidin chip, fusion injected, mean of two experiments ± SD
T1 construct: extracellular domain; Captured on a streptavidin BIAcore chip; also called human sTNFR1; sTNFR1
T1 sequence (looked up): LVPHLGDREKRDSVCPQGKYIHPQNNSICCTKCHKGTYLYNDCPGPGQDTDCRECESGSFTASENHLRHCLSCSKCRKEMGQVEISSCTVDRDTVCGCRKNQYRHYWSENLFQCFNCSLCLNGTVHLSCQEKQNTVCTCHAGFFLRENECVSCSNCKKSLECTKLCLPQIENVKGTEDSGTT
Protocol: The affinity of the anti-TNFR1/AlbudAb fusions for human TNFR1 was determined by BIAcore. Briefly, the anti-TNFR1 molecules were injected over a streptavidin BIAcore chip on which biotinylated, human TNFR1 had been immobilised. Association and dissociation were determined at different concentrations of injected anti-TNFR1. […] The affinity for human TNFR1 as determined by BIAcore of the anti-TNFR1/AlbudAb fusion is slightly higher to that determined for the single anti-TNFR1 dAb used in each of the combination constructs.
The binding affinities for binding to recombinant human TNFR1 were assessed by BIAcore™ analysis. Analysis was carried out using Streptavidin coated (SA) chips (BIAcore, cat no. BR-1000-32). An SA chip was coated at low density using biotinylated hTNFR1. Examined molecules were injected over this surface at […] concentrations, i.e. 32, 16 (twice), 8, 4, 2, 1 and 0.5 nM, in random order using a flow rate of 50 μl/min. Between individual injections the surface was regenerated back to baseline using 10 mM glycine pH 2.0. Data were corrected for instrument artefacts using double referencing. Experiments were carried out on a BIAcore™ 3000 machine and data were analysed using the BIAevaluation software version 4.1, kₒₙ and koff were simultaneously fitted using 1:1 Langmuir binding model. For fitting purposes, the concentration range 1-32 nM was used for the monomers, while 0.5-16 nM was used for the AlbudAb fusion molecules. The binding data fitted well to the 1:1 model for all tested molecules. All KD values were calculated from kₒₙ and koff rates. BIAcore™ runs were carried out at 25° C.

[2] = molecular target: T2, human TNFR1 on human umbilical vein endothelial cells (HUVECs) (human, UniProt P19438 30-455); assay: cell-based or functional assay
T2 sequence (looked up): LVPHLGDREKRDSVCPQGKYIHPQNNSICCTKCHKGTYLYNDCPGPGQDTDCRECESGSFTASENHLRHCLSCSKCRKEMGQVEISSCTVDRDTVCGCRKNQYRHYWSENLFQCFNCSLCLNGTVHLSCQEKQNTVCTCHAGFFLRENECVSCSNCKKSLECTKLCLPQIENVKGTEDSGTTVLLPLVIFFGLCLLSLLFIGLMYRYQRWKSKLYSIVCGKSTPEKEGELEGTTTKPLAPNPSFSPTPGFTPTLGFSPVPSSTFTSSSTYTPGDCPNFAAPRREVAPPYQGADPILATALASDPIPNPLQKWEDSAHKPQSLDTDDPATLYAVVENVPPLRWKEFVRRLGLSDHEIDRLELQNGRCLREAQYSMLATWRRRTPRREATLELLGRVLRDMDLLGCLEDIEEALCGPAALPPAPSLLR

[3] = molecular target: T1, biotinylated recombinant human soluble …; assay: BIAcore (SPR), biotinylated human sTNFR1 on SA chip, dAb injected
Protocol: (§1) To confirm the increase in accelerated stability four novel dAbs were also characterised according to the more extensive protocol described in example 1. In this protocol, the dAbs are incubated up to 48 h at 40° C., centrifuged and the remaining dAb in solution quantified using OD₂₈₀. […] To verify that the increase in stability is not at the expense of functional anti-TNFR1 activity of the dAb, the binding affinity to TNFR1 of the dAbs was determined by BIAcore, using biotinylated TNFR1 captured on a BIAcore SA chip. […] Therefore, these dAbs combine an increase in accelerated stability without compromising much on the affinity of the dAb for TNFR1.
TABLE 7 Accelerated stability and affinity for human sTNFR1 for novel anti-TNFR1 dAbs. Purified dAb was incubated at 1 mg/ml in PBS at 40° C. for the indicated amounts of time. After that time, the percentage of residual protein in solution was determined by OD280 determination. Affinity for sTNFR1 was determined by BIAcore using coated sTNFR1 and injecting the dAb as described.

[4] = molecular target: T1, biotinylated recombinant human soluble …; assay: BIAcore (SPR), biotinylated TNFR1 on SA chip; reference value of DOM1h-574-156 (150 pM) described previously
Protocol: as §1

Binder | Kd [1] | Mean EC50, inhibition of TNF-alpha-induced VCAM-1 expression in the HUVEC cell assay [2] | Kd [3] | fold change of affinity against the parent dAb DOM1h-574-156 [4]
DMS5544 (bispecific antibody, Single-chain genetic fusion of the anti-TNFR1 VH dAb DOM1h-574-188, linker AST and the anti-serum albumin Vk dAb DOM7h-11-3; also called DOM1h-574-188 - Ala-Ser-Thr - DOM7h-11-3; anti-TNFR1/AlbudAb fusion) EVQLLESGGGLVQPGGSLRLSCAASGFTFDKYSMGWVRQAPGKGLEWVSQISDTADRTYYAHSVKGRFTISRDNSKNTLYLQMNSLRAEDTAVYYCAIYTGRWVPFEYWGQGTLVTVSSASTDIQMTQSPSSLSASVGDRVTITCRASRPIGTTLSWYQQKPGKAPKLLILWNSRLQSGVPSRFSGSGSGTDFTLTISSLQPEDFATYYCAQAGTHPTTFGQGTKVEIKR | 0.18 nM | 4.83 nM |  | 
DMS5542 (bispecific antibody, Single-chain genetic fusion of the anti-TNFR1 VH dAb DOM1h-574-214, linker AST and the anti-serum albumin Vk dAb DOM7h-11-3; also called DOM1h-574-214 - Ala-Ser-Thr - DOM7h-11-3; anti-TNFR1/AlbudAb fusion) EVQLLESGGGLVQPGGSLRLSCAASGFTFSKYSMGWVRQAPGKGLEWVSQISDTADRTYYADSVKGRFTISRDNSKNTLYLQMNSLRAEDTAVYYCAIYTGRWVPFEYWGQGTLVTVSSASTDIQMTQSPSSLSASVGDRVTITCRASRPIGTTLSWYQQKPGKAPKLLILWNSRLQSGVPSRFSGSGSGTDFTLTISSLQPEDFATYYCAQAGTHPTTFGQGTKVEIKR | 0.202 nM | 6.23 nM |  | 
DMS5535 (bispecific antibody, Single-chain genetic fusion of the anti-TNFR1 VH dAb DOM1h-574-196, linker AST and the anti-serum albumin Vk dAb DOM7h-11-3; also called DOM1h-574-196 - Ala-Ser-Thr - DOM7h-11-3; anti-TNFR1/AlbudAb fusion) EVQLLESGGGLVQPGGSLRLSCAASGFTFSKYSMGWVRQAPGKGLEWVSQISDTADRTYYAHSVKGRFTISRDNSKNTLYLQMNSLRAEDTAVYYCAIYTGRWEPFEYWGQGTLVTVSSASTDIQMTQSPSSLSASVGDRVTITCRASRPIGTTLSWYQQKPGKAPKLLILWNSRLQSGVPSRFSGSGSGTDFTLTISSLQPEDFATYYCAQAGTHPTTFGQGTKVEIKR | 0.277 nM | 5.79 nM |  | 
DOM1h-574-188 (VHH, Human VH immunoglobulin single variable domain (dAb), not camelid; also called anti-TNFR1 dAb DOM1h-574-188) VHH: EVQLLESGGGLVQPGGSLRLSCAASGFTFDKYSMGWVRQAPGKGLEWVSQISDTADRTYYAHSVKGRFTISRDNSKNTLYLQMNSLRAEDTAVYYCAIYTGRWVPFEYWGQGTLVTVSS |  |  | 0.35 nM | ≤ 4 fold
DOM1h-574-214 (VHH, Human VH immunoglobulin single variable domain (dAb), not camelid; Monomer cloned in pDOM13 for expression in E. coli; also called anti-TNFR1 dAb DOM1h-574-214) VHH: EVQLLESGGGLVQPGGSLRLSCAASGFTFSKYSMGWVRQAPGKGLEWVSQISDTADRTYYADSVKGRFTISRDNSKNTLYLQMNSLRAEDTAVYYCAIYTGRWVPFEYWGQGTLVTVSS |  |  | 0.58 nM | ≤ 4 fold
DOM1h-574-196 (VHH, Human VH immunoglobulin single variable domain (dAb), not camelid; Monomer cloned in pDOM13 for expression in E. coli; also called anti-TNFR1 dAb DOM1h-574-196) VHH: EVQLLESGGGLVQPGGSLRLSCAASGFTFSKYSMGWVRQAPGKGLEWVSQISDTADRTYYAHSVKGRFTISRDNSKNTLYLQMNSLRAEDTAVYYCAIYTGRWEPFEYWGQGTLVTVSS |  |  | 0.47 nM | ≤ 4 fold
